In the Immune Epitope Database (IEDB):

How the values were obtained:
HLA-C*05:01 = assay: IEDB peptide-MHC binding, purified MHC/direct/fluorescence; filed as Kd, often an IC50 or EC50 that approximates it; ≥ and ≤ were set here for values at or beyond the usual limits of such assays
HLA-C*03:03 = assay: as above; details: source organism: Escherichia coli str. K-12 substr. MG1655
HLA-C*14:02 = assay: as above
HLA-B*39:01 = assay: IEDB peptide-MHC binding, purified MHC/competitive/fluorescence; filed as Kd, often an IC50 or EC50 that approximates it; ≥ and ≤ were set here for values at or beyond the usual limits of such assays; details: source organism: Escherichia coli str. K-12 substr. MG1655
HLA-B*58:01 = assay: as above; details: source organism: Escherichia coli str. K-12 substr. MG1655
HLA-A*02:01 [1] = assay: as above; details: source organism: Shigella flexneri 5 str. 8401
HLA-A*31:01 [2] = assay: as above; details: source organism: Shigella flexneri 5 str. 8401
HLA-B*83:01 = assay: as above
HLA-A*32:15 = assay: as above
HLA-B*15:42 = assay: as above
HLA-B*08:01 = assay: as above; details: source organism: Shigella flexneri 5 str. 8401
HLA-A*24:02 [3] = assay: as above; details: source organism: Shigella flexneri 5 str. 8401
HLA-B*45:06 = assay: as above
HLA-C*04:01 = assay: as above
HLA-A*32:07 = assay: as above
HLA-A*29:02 = assay: as above; details: source organism: Mycosarcoma maydis
HLA-A*02:01 [4] = assay: IEDB peptide-MHC binding, purified MHC/competitive/fluorescence; ≥ and ≤ were set here for values at or beyond the usual limits of such assays; details: source organism: Zaire ebolavirus
HLA-A*01:01 = assay: as above
HLA-A*24:02 [5] = assay: as above; details: source organism: Zaire ebolavirus
HLA-A*11:01 = assay: as above
HLA-B*15:01 = assay: as above; details: source organism: Vaccinia virus Copenhagen
HLA-A*03:01 = assay: as above; details: source organism: Vaccinia virus Copenhagen
HLA-A*31:01 [6] = assay: IEDB peptide-MHC binding, purified MHC/competitive/radioactivity; filed as Kd, often an IC50 or EC50 that approximates it; ≥ and ≤ were set here for values at or beyond the usual limits of such assays; details: source organism: Vaccinia virus WR
HLA-A*68:01 = assay: as above; details: source organism: Vaccinia virus WR
HLA-A*33:01 = assay: as above; details: source organism: Vaccinia virus WR
HLA-A*02:03 = assay: IEDB peptide-MHC binding, purified MHC/direct/fluorescence; filed as Kd, often an IC50 or EC50 that approximates it; ≥ and ≤ were set here for values at or beyond the usual limits of such assays; details: source organism: Mycobacterium tuberculosis str. Haarlem
HLA-C*15:02 = assay: as above
HLA-C*07:02 = assay: as above; details: source organism: Mycobacterium tuberculosis variant bovis BCG str. Pasteur 1173P2
HLA-C*06:02 = assay: as above; details: source organism: Mycobacterium tuberculosis variant bovis BCG str. Pasteur 1173P2
HLA-A*02:11 = assay: as above; details: source organism: Mycobacterium tuberculosis str. Haarlem
HLA-A*69:01 = assay: as above; details: source organism: Mycobacterium tuberculosis
HLA-C*08:02 = assay: as above; details: source organism: Mycobacterium tuberculosis str. Haarlem
HLA-A*26:01 = assay: as above; details: source organism: Mycobacterium tuberculosis
[7] = source organism: Escherichia coli str. K-12 substr. MG1655
[8] = source organism: Shigella flexneri 5 str. 8401
[9] = source organism: Mycosarcoma maydis
[10] = source organism: Zaire ebolavirus
[11] = source organism: Vaccinia virus Copenhagen
[12] = source organism: Mycobacterium tuberculosis variant bovis BCG str. Pasteur 1173P2
[13] = source organism: Mycobacterium tuberculosis str. Haarlem

AAAVAYPEL showed a Kd (HLA-C*05:01; [7]) of no less than 20 µM, a Kd (HLA-C*03:03) of 0.002 µM and a Kd (HLA-C*14:02; [7]) of 2.99 µM. It also gave a Kd (HLA-B*39:01) of no less than 20 µM and a Kd (HLA-B*58:01) of no less than 20 µM.
In the case of IIMRRFFYF, the Kd (HLA-A*02:01 [1]) is reported as 0.0329 µM, the Kd (HLA-A*31:01 [2]) is reported as 0.0012 µM and the Kd (HLA-B*83:01; [8]) is reported as no less than 5 µM. For the same sequence, the Kd (HLA-A*32:15; [8]) was 0.0677 µM, the Kd (HLA-B*15:42; [8]) was no less than 5 µM and the Kd (HLA-B*08:01) was 0.0222 µM. For the same sequence, the Kd (HLA-A*24:02 [3]) was no more than 0.0001 µM and the Kd (HLA-B*45:06; [8]) was no less than 5 µM.
IPVHPRHPY showed a Kd (HLA-C*04:01; [9]) of no less than 5 µM, a Kd (HLA-A*32:07; [9]) of 0.393 µM and a Kd (HLA-B*83:01; [9]) of 0.222 µM. For the same sequence, the Kd (HLA-A*32:15; [9]) was 1.43 µM, the Kd (HLA-B*15:42; [9]) was no less than 5 µM and the Kd (HLA-B*45:06; [9]) was no less than 5 µM. For the same sequence, the Kd (HLA-A*29:02) was 0.938 µM.
With ITDKIDQII the IC50 (HLA-A*02:01 [4]) was 5.02 µM, the IC50 (HLA-A*01:01; [10]) was 5.95 µM and the IC50 (HLA-A*24:02 [5]) was 8.7 µM. The IC50 (HLA-A*11:01; [10]) was 39.2 µM.
KSNAKCIEY was tested, and the IC50 (HLA-B*15:01) was 18.2 µM, the IC50 (HLA-A*01:01; [11]) was 41.8 µM and the IC50 (HLA-A*11:01; [11]) was 21.7 µM. The IC50 (HLA-A*03:01) was 16.5 µM, the Kd (HLA-A*31:01 [6]) was 0.347 µM and the Kd (HLA-A*68:01) was no less than 24.7 µM. The Kd (HLA-A*33:01) was no less than 25.8 µM.
Work on YMLDMTFPV yielded a Kd (HLA-A*02:03) of no more than 0.001 µM, a Kd (HLA-C*15:02; [12]) of 0.407 µM and a Kd (HLA-C*07:02) of 0.651 µM. For the same sequence, the Kd (HLA-C*05:01; [12]) was 3.43 µM, the Kd (HLA-C*06:02) was no less than 20 µM and the Kd (HLA-A*02:11) was no more than 0.001 µM. For the same sequence, the Kd (HLA-C*14:02; [12]) was 0.076 µM and the Kd (HLA-A*69:01) was no more than 0.001 µM.
YTPEQWWPF gave a Kd (HLA-C*15:02; [13]) of no less than 20 µM, a Kd (HLA-C*08:02) of no less than 20 µM and a Kd (HLA-A*26:01) of 0.0114 µM. It also gave a Kd (HLA-C*14:02; [13]) of 0.969 µM, a Kd (HLA-C*04:01; [13]) of no less than 5 µM and a Kd (HLA-A*32:07; [13]) of 0.0229 µM. It also gave a Kd (HLA-B*83:01; [13]) of no less than 5 µM, a Kd (HLA-A*32:15; [13]) of 0.0382 µM and a Kd (HLA-B*15:42; [13]) of no less than 5 µM. The Kd (HLA-B*45:06; [13]) was no less than 5 µM.
